# Measurements from patent publication US20220364074, “RNA-GUIDED NUCLEASES AND ACTIVE FRAGMENTS AND VARIANTS THEREOF AND METHODS OF USE” (LIFEEDIT THERAPEUTICS, INC., published 2022).
# T1: APG01658.1 (Staphylococcus sp.)
# T1 chain: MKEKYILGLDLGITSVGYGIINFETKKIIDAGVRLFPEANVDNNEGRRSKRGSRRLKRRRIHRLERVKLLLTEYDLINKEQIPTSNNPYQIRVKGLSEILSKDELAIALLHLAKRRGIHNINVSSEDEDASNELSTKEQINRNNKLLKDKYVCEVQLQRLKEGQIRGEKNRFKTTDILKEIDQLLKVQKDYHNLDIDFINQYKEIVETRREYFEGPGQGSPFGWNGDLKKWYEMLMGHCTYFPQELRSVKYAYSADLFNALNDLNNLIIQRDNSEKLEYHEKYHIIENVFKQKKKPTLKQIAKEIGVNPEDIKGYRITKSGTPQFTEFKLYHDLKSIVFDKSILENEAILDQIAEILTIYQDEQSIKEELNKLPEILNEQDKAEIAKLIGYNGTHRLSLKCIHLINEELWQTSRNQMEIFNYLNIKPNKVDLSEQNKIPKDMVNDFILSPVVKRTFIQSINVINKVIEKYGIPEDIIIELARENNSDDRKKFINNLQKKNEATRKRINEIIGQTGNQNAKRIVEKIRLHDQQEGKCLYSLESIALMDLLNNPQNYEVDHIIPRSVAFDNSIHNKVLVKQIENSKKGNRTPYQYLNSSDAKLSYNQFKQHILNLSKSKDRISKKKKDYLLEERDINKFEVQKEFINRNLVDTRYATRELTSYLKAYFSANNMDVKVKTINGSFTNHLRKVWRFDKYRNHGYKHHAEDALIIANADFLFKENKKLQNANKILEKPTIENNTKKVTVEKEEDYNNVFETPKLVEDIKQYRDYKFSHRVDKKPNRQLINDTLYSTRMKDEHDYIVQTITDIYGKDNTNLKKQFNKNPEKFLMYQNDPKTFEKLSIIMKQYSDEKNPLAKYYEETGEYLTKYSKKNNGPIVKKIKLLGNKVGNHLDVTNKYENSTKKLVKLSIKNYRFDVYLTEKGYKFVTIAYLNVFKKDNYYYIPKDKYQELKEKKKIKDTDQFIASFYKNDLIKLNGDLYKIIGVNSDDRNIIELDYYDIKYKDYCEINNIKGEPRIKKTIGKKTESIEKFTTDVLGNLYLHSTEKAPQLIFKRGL
# T2: APG06646.1 (Bacillus sp.)
# T2 chain: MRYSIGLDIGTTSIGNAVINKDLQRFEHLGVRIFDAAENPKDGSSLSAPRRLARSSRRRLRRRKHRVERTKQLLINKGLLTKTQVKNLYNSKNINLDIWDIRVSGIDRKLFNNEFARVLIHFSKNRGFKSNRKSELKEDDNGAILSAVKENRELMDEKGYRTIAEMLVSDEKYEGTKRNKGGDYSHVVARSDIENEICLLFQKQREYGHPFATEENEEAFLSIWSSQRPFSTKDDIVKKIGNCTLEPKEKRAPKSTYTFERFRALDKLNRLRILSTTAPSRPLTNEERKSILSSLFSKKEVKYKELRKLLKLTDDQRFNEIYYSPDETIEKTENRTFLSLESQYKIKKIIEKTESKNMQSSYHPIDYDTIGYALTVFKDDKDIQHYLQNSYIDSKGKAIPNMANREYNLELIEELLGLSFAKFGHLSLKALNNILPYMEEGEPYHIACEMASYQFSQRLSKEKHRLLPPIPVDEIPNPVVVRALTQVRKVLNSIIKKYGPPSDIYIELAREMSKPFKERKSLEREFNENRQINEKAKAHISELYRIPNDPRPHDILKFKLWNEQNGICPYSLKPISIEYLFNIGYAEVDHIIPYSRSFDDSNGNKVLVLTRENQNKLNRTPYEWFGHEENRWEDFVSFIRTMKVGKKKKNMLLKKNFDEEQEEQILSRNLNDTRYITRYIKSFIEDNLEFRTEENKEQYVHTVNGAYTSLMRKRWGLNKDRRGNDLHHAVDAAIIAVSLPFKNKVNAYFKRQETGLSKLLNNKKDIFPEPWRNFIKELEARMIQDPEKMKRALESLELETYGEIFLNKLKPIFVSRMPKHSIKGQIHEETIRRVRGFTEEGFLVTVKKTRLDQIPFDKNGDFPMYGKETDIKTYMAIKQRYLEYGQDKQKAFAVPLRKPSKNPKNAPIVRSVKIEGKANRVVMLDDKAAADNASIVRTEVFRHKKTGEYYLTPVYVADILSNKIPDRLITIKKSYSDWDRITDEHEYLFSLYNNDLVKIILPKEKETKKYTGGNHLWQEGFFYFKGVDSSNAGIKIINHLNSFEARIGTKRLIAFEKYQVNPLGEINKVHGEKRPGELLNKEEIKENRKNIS
# B1: guide 428 ; AurkB target 491 (ssRNA ; dsDNA)
# RNA: GGCUGGGCCAUUAAAACCUCUCCAGUUUUAGUACUCUGUAAUUUUAGGUAUGAAAGUCAUACCUAAAAUUACAGAAUCUACUGAAACAAGACUAUAUGUCGUGUUUAUCCCACUAAUUUAUUAGUGGGAUUUU
# DNA 1: GGCTGGGCCATTAAAACCTCTCCA
# DNA 2: TGGAGAGGTTTTAATGGCCCAGCC
# B2: guide 423 ; RelA target 486 (ssRNA ; dsDNA)
# RNA: ACAGUGCGCAUCUCCCUGGUCACCGUUUUAGUACUCUGUAAUUUUAGGUAUGAAAGUCAUACCUAAAAUUACAGAAUCUACUGAAACAAGACUAUAUGUCGUGUUUAUCCCACUAAUUUAUUAGUGGGAUUUU
# DNA 1: ACAGTGCGCATCTCCCTGGTCACC
# DNA 2: GGTGACCAGGGAGATGCGCACTGT
# B3: guide 462 ; AurkB target 523 (ssRNA ; dsDNA)
# RNA: GUUUUAAUGGCCCAGCCUCACACCCGCCAUAAUUCCUCUGUAAAACUUAAAGAAGGUUUAUAGAGUUAUUAUGGUAAGGCAAUAUGCCGUGGCGUUGGGGAUCGCCUAUGUCCGGUUUUACCGGAUCUCCCUAAAGGUGACUAACUUUGGUUAGUCACCUUUUU
# DNA 1: GTTTTAATGGCCCAGCCTCACACCC
# DNA 2: GGGTGTGAGGCTGGGCCATTAAAAC
# B4: guide 450 ; AurkB target 493 (ssRNA ; dsDNA)
# RNA: CAUGGCAGUACAUUAGAGCAGCCAUAAUUCCUCUGUAAAACUUAAAGAAGGUUUAUAGAGUUAUUAUGGUAAGGCAAUAUGCCGUGGCGUUGGGGAUCGCCUAUGUCCGGUUUUACCGGAUCUCCCUAAAGGUGACUAACUUUGGUUAGUCACCUUUUU
# DNA 1: CATGGCAGTACATTAGAGCA
# DNA 2: TGCTCTAATGTACTGCCATG
# B5: guide 451 ; TRA target 512 (ssRNA ; dsDNA)
# RNA: CCCUGGCUGUGCACAUUCCCUCCUGGCCAUAAUUCCUCUGUAAAACUUAAAGAAGGUUUAUAGAGUUAUUAUGGUAAGGCAAUAUGCCGUGGCGUUGGGGAUCGCCUAUGUCCGGUUUUACCGGAUCUCCCUAAAGGUGACUAACUUUGGUUAGUCACCUUUUU
# DNA 1: CCCTGGCTGTGCACATTCCCTCCTG
# DNA 2: CAGGAGGGAATGTGCACAGCCAGGG
# How the values were obtained:
# [1] = target: T1, APG01658.1; test: cell_activity; PAM SEQ ID NO 44, 3' of target; details: tags: N-term SV40 NLS and 3xFLAG, C-term 2x nucleoplasmin NLS in HEK293T
# [2] = target: T2, APG06646.1; test: cell_activity; PAM NNNNC 3'; details: tags: N-term SV40 NLS and 3xFLAG, C-term 2x nucleoplasmin NLS in HEK293T
Binder,activity [1] [% editing],activity [2] [% editing]
B1,13.1,
B2,10,
B3,,10.9
B4,,7.94
B5,,7.03
